How the values were obtained:
[1] = biological target: HLA-DR1 (HLA-DRA*0101, HLA-DRB1*0101) (human); test: FP
[2] = biological target: HLA-DR1 (HLA-DRA*0101, HLA-DRB1*0101) (human); test: ELISA
[3] = biological target: HLA-DR1 (HLA-DRA*0101, HLA-DRB1*0101) (human); test: ELISA; remark: listed apart in the source

## N49-63
[1]
  IC50: 493 nM

## E56-70
[1]
  IC50: > 10000 nM

## N108-122
[1]
  IC50: > 10000 nM

## N224-238
[1]
  IC50: 2770 nM

## N328-342
[1]
  IC50: 4010 nM

## SARS-CoV-2 Spike peptide S486-505 (Wuhan HU-1)
[2]
  IC50: 3050 nM
[3]
  IC50: 1950 nM

## nsp6 3801-3815
[1]
  IC50: 1520 nM

## SARS-CoV-2 Spike peptide S512-526
[2]
  IC50: 662 nM

## S990-1004
[1]
  IC50: > 10000 nM

## SARS-CoV-2 Spike peptide S866-880
[2]
  IC50: 1150 nM

## ORF8 43-57
[1]
  IC50: 430 nM

## nsp12 5019-5033
[1]
  IC50: 2890 nM

## S235-249
[1]
  IC50: 8130 nM

## S818-832
[1]
  IC50: > 10000 nM

## SARS-CoV-2 Spike peptide S511-530
[2]
  IC50: 2620 nM

## SARS-CoV-2 orf1ab (nsp14) peptide nsp14 6420-6434
[2]
  IC50: 541 nM

## S339-353
[1]
  IC50: 5990 nM

## S1015-1029
[1]
  IC50: 7390 nM

## N127-141
[1]
  IC50: > 10000 nM

## S344-358
[1]
  IC50: > 10000 nM

## SARS-CoV-2 Spike peptide S167-181
[2]
  IC50: > 10000 nM

## SARS-CoV-2 orf1ab (nsp3) peptide nsp3 1350-1364
[2]
  IC50: 140 nM

From paper PMC10840515
